# Source: patent US20170198026A1, “Compositions And Methods For Treating Tumors And Immune Based Inflammatory Diseases” (The Schepens Eye Research Institute, Inc., priority 2014, published 2017)
# “Also recorded” adds a separate entry of the source.
# T1: EMR2 (Homo sapiens, UniProt Q9UHX3)
# T1 construct: endogenous in cells; host or cells: human peripheral blood monocytes (from Leukopac PBMC) cultured with TGFb2 and tetanus toxoid, giving tolerogenic APC
# T1 sequence (Q9UHX3 24-823): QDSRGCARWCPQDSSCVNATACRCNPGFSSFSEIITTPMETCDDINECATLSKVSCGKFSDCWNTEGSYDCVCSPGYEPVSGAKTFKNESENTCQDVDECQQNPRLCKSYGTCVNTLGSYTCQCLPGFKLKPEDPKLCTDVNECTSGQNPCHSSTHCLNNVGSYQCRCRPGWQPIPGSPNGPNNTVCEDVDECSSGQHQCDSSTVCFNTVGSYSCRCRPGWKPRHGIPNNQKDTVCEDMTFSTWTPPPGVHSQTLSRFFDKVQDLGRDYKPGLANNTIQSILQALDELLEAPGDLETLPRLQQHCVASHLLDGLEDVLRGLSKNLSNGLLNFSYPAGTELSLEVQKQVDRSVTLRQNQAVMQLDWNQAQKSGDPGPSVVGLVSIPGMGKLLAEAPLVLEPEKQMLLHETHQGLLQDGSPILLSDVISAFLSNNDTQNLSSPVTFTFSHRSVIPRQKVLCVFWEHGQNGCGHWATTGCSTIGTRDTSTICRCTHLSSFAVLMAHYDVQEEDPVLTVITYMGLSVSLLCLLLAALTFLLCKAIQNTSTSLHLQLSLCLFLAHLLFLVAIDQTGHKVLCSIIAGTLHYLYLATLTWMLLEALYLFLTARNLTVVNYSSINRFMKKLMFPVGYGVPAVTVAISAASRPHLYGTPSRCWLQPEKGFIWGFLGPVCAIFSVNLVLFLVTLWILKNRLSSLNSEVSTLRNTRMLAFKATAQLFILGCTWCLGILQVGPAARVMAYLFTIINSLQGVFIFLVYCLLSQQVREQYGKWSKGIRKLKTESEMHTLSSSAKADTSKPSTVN
# What was measured:
# EMR2 = target: T1, EMR2; assay: Blocking EMR2 ligand binding with soluble chondroitin sulfate in tolerogenic APC / lymphocyte co-culture; format: cell-based
# Experimental: Monocytes were cultured as outlined above. Soluble chondroitin sulfate from shark cartilage (Sigma-Aldrich, St. Louis, Mo.) was used to bind to EMR and block signaling at a concentration of 1.5 mg/mL. CD25 and FoxP3 expression as well as intracellular cytokine functionality was tested.
# To mediate cell interactions, EMR2 binds to chondroitin sulfate GAGs on the opposing cell. To block EMR2 signaling and the induction of T regulatory cells, we added soluble chondroitin sulfate to the cell culture. Saturating the culture with soluble chondroitin sulfate competitively binds up available EMR2 molecules and subsequently block signaling from the APC to the lymphocytes.
# We treated APC with soluble chondroitin sulfate (1.5 mg/mL) in the same conditions listed above. By using a dose curve, we found 1.5 mg/mL was the ideal concentration for saturating EMR2 receptors. Post co-culture with lymphocytes, we repeated surface and intracellular staining of lymphocytes to check for differences in FoxP3+ cells (FIG. 9).
# human APCs = assay: Surface markers on human tolerogenic APC by flow cytometry; format: cell-based
# Experimental: Isolated cells were plated on sterile petri dishes (BD Falcon, Franklin Lakes, N.J.) in serum-free culture medium, RPMI-1640 supplemented with Glutamax (Invitrogen, Carlsbad, Calif.), 1 mM sodium pyruvate, 0.1 mM non-essential amino acids, 100 U/mL Penicillin/Streptomycin, 10 mM HEPES (Invitrogen, Carlsbad, Calif.), Insulin/Transferrin/Selenium (ITS) (Invitrogen, Carlsbad, Calif.), and 0.1% BSA (Sigma-Aldrich, St. Louis, Mo.). Cells were cultured with or without 1 ng/mL porcine TGFβ2 (R&D Systems, Minneapolis, Minn.) for at least six hours. Cells were then pulsed with or without tetanus toxoid (TT) antigen (List Biological Laboratories, Campbell, Calif.) in serum-free media and incubated overnight in 37° C., 5% CO2.
# APC were analyzed by flow cytometry to confirm the expression of myeloid and tolerogenic markers. CD14 (constitutive on monocyte-derived cells), Immunoglobulin-like transcript 3 (ILT3, cell surface immunoglobulin that co-ligates to APC stimulatory receptors to downregulate activation signals (Cella et al., 1997)), Programmed cell death 1 ligand 1 (PD-L1, well-known immunosuppressive ligand), and EMR2 were measured. Monoclonal antibodies to ILT3 and PD-L1 were purchased from eBioscience (San Diego, Calif.) and the monoclonal antibody to EMR2 was purchased from R&D Systems (Minneapolis, Minn.).
# [1] = both TGFβ2 (1 ng/mL) and antigen (TT) compared to antigen or TGFβ2 alone
"ideal concentration for saturating EMR2 receptors (EMR2; dose curve, APC culture) [mg/mL]",Molecule,"CD25+ FoxP3+ cell populations (Treg production) (EMR2; 1.5 mg/mL soluble chondroitin sulfate, APC treated with antigen and TGFβ, CD4+ gated lymphocytes post co-culture)",EMR2 expression on APC (human APCs; TGFβ2 (1 ng/mL) and antigen (TT)),ILT3 expression on APC (human APCs; [1]),PD-L1 expression on APC (human APCs; [1])
1.5,chondroitin sulfate [soluble chondroitin sulfate],no increase; also recorded: successfully blocks Treg production,–,–,–
–,"TGFβ2: porcine TGFβ2 (R&D Systems), aqueous humor immunosuppressive factor used to generate tolerogenic APC (protein, UniProt P09858 303-435, looked up) Transforming growth factor …: ALDAAYCFRNVQDNCCLRPLYIDFKRDLGWKWIHEPKGYNANFCAGACPYLWSSDTQHSRVLSLYNTINPEASASPCCVSQDLEPLTILYYIGKTPKIEQLSNMIVKSCKCSKTKLAAFARLYHSHSNLGSET",–,also upregulated,significantly (p≦0.05) upregulated,significantly (p≦0.05) upregulated
